The target in assay [1] is T1, DLL4 (human, UniProt Q9NR61 27-685).
T1 construct: whole, on cells; also called human DLL4
In words: flow cytometry on 293G-human DLL4 cells; DLL4 VD N-terminal. On the technique in general: Flow cytometry measures light scatter and fluorescence of single cells or particles in a stream.

For assay [2], the target named is T2, human DLL4 extracellular domain (human, UniProt Q9NR61 27-529, biotin label in the Notch-1 competition ELISA (sites not given)).
T2 construct: extracellular domain; also called biotin labeled human DLL4 extracellular domain
In words: competition ELISA: biotin-labelled human DLL4 ECD pre-mixed with DVD-Ig, then on coated human Notch-1 (competitor Notch-1). (ELISA stands for enzyme-linked immunosorbent assay.)

The target in assay [3] is T1, DLL4. The experiment in a line: flow cytometry on cells carrying the target, 2 ug/mL; C-terminal VD.
For another assay, the target named is T3, RON (UniProt Q04912 25-1400, limits assumed).
T3 construct: whole, on cells; also called macrophage stimulating protein receptor tyrosine kinase; MSP receptor
The description is as above.

Assay [4] addresses T4, VEGF (VEGF 1-165 aa, R&D Systems 293-VE-010) (UniProt P15692 27-191).
T4 construct: bought reagent; also called vascular endothelial growth factor
The experiment in a line: Direct bind ELISA, VEGF coated on plate; VEGF domain N-term., HC long/LC long.

The target of assay [5] is T5, ErbB3 on A431 cells (human, UniProt P21860 20-1342). The experiment in a line: cell-based or functional assay.
The target in assay [6] is T6, EGFR on A431 cells (human, UniProt P00533 25-1210). In words: cell-based or functional assay.
In assay [7] the target is T5, ErbB3 on A431 cells. In words: cell-based or functional assay. The source holds these as a separate data set.
In assay [8] the target is T6, EGFR on A431 cells. The experiment in a line: cell-based or functional assay. This is another data set of the same source.

For orientation: EC50 means the concentration needed to bring the measured effect to its halfway point. The low end stands for higher potency in that assay, the high end for lower potency in that assay. The term IC50 denotes the midpoint of a concentration-inhibition curve. Read a low IC50 as greater potency.

T4 sequence (P15692 other isoform, or with tags, fused parts or gaps limits assumed): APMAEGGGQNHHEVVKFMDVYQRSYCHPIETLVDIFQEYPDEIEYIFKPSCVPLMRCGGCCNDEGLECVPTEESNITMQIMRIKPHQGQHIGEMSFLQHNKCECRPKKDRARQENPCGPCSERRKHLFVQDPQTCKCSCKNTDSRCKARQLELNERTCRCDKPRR

B1: DVD485 (bispecific antibody, human IgG1, kappa)
heavy: not shown
light: DIQMTQSPSSLSASVGDRVTITCRASQDVSTAVAWYQQKPGKAPKLLIYSASFLYSGVPSRFSGSGSGTDFTLTISSLQPEDFATTYYCQQSYTGTVTFGQGTKVEIKRTVAAPSVFIFPPDIQMTQSPSSLSASVGDRVTITCRASQVIRRSLAWYQQKPGKAPKLLIYAASNLASGVPSRFSGSGSGTDFTLTISSLQPEDFATYYCQQSNTSPLTFGQGTKVEIKRTVAAPSVFIFPPSDEQLKSGTASVVCLLNNFYPREAKVQWKVDNALQSGNSQESVTEQDSKDSTYSLSSTLTLSKADYEKHKVYACEVTHQGLSSPVTKSFNRGEC
notes: DVD-Ig; outer AB015 (DLL4), inner AB071 (VEGF); also called DLL4 and VEGF DVD-Ig, HC linker short, LC linker long
Molecule B1 had an EC50 with DLL4 [1] of 0.89 nM.

B2: DVD471 (bispecific antibody, human IgG1, kappa, L234A L235A)
heavy: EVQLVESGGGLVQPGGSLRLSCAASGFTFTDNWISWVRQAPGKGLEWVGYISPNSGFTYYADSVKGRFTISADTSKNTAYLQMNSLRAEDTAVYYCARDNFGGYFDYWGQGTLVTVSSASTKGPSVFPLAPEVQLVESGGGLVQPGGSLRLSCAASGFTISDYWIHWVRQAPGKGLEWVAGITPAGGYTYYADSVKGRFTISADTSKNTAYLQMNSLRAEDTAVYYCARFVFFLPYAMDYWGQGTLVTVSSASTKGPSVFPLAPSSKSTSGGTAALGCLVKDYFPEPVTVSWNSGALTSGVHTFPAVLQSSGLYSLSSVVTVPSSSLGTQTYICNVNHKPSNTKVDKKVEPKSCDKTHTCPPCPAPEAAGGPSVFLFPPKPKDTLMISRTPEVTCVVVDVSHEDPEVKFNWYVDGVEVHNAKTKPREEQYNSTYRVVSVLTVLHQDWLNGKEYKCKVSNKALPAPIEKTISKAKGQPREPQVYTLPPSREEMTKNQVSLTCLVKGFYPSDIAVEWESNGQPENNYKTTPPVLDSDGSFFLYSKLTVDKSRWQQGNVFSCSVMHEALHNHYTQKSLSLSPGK
light: DIQMTQSPSSLSASVGDRVTITCRASQDVSTAVAWYQQKPGKAPKLLIYSASFLYSGVPSRFSGSGSGTDFTLTISSLQPEDFATTYYCQQSYTGTVTFGQGTKVEIKRTVAAPSVFIFPPDIQMTQSPSSLSASVGDRVTITCRASQDVSTAVAWYQQKPGKAPKLLIYSASFLYSGVPSRFSGSGSGTDFTLTISSLQPEDFATYYCQQSYTTPPTFGQGTKVEIKRTVAAPSVFIFPPSDEQLKSGTASVVCLLNNFYPREAKVQWKVDNALQSGNSQESVTEQDSKDSTYSLSSTLTLSKADYEKHKVYACEVTHQGLSSPVTKSFNRGEC
notes: DVD-Ig; also called DLL4 and VEGF DVD-Ig, HC linker long, LC linker long
B2 yielded an EC50 in the assay with DLL4 [1] of 1.13 nM.

B3: DVD258 (PLGF (seq. 1) N-terminal / DLL-4 (seq. 1) C-terminal DVD-Ig) (bispecific antibody, human IgG1, kappa)
heavy: not shown
light: DIVLTQSPDSLAVSLGERVTMNCKSSQSLLNSGMRKSFLAWYQQKPGQSPKLLIYWASTRESGVPDRFTGSGSGTDFTLTISSVQAEDVAVYYCKQSYHLFTFGSGTKLEIKRTVAAPDIQMTQSPSSLSASVGDRVTITCRASQDVSTAVAWYQQKPGKAPKLLIYSASFLYSGVPSRFSGSGSGTDFTLTISSLQPEDFATTYYCQQSYTGTVTFGQGTKVEIKRTVAAPSVFIFPPSDEQLKSGTASVVCLLNNFYPREAKVQWKVDNALQSGNSQESVTEQDSKDSTYSLSSTLTLSKADYEKHKVYACEVTHQGLSSPVTKSFNRGEC
notes: also called VD258H; VD258L
In turn, B3 had an IC50 in [2] of 17.5 nM.

B4: DVD258 (bispecific antibody, human IgG1, kappa)
heavy: not shown
light: DIVLTQSPDSLAVSLGERVTMNCKSSQSLLNSGMRKSFLAWYQQKPGQSPKLLIYWASTRESGVPDRFTGSGSGTDFTLTISSVQAEDVAVYYCKQSYHLFTFGSGTKLEIKRTVAAPDIQMTQSPSSLSASVGDRVTITCRASQDVSTAVAWYQQKPGKAPKLLIYSASFLYSGVPSRFSGSGSGTDFTLTISSLQPEDFATTYYCQQSYTGTVTFGQGTKVEIKRTVAAPSVFIFPPSDEQLKSGTASVVCLLNNFYPREAKVQWKVDNALQSGNSQESVTEQDSKDSTYSLSSTLTLSKADYEKHKVYACEVTHQGLSSPVTKSFNRGEC
notes: DVD-Ig; outer AB047 (PlGF), inner AB015 (DLL4); also called PlGF and DLL4 DVD-Ig
As to B4, the “FACS Geometric Mean C-terminal” value with DLL4 [3] was 5.57.

B5: DVD034 (bispecific antibody, human IgG1, kappa)
heavy: not shown
light: DIQMTQSPSSVSASVGDRVTITCRASQGISSWLAWYQQKPGKAPNLLIYEASSLQSGVPSRFGGSGSGTDFTLTISSLQPEDFATYYCQQANGFPWTFGQGTKVEIKRTVAAPDVVMTQSPLSLPVTPGEPASISCRSSQSLLHSNGFNYVDWYLQKPGQSPHLLIYFGSYRASGVPDRFSGSGSGTDFTLKISRVEAEDVGVYYCMQALQTPPWTFGQGTKVEIRRTVAAPSVFIFPPSDEQLKSGTASVVCLLNNFYPREAKVQWKVDNALQSGNSQESVTEQDSKDSTYSLSSTLTLSKADYEKHKVYACEVTHQGLSSPVTKSFNRGEC
notes: DVD-Ig; outer AB012 (HGF), inner AB005 (RON); also called HGF and RON DVD-Ig
Consider B5, for which, in the assay with RON, the “FACS Geometric Mean C-terminal” value amounted to 0.39.

B6: DVD498 (bispecific antibody, human IgG1, kappa)
heavy: not shown
light: DIQMTQSPSSLSASVGDRVTITCRASQVIRRSLAWYQQKPGKAPKLLIYAASNLASGVPSRFSGSGSGTDFTLTISSLQPEDFATYYCQQSNTSPLTFGQGTKVEIKRTVAAPSVFIFPPDIQMTQSSSYLSVSLGGRVTITCKASDHINNWLAWYQQKPGNAPRLLISGATSLETGVPSRFSGSGSGKDYTLSITSLQTEDVATYYCQQYWSIPLTFGAGTKLELKRTVAAPSVFIFPPSDEQLKSGTASVVCLLNNFYPREAKVQWKVDNALQSGNSQESVTEQDSKDSTYSLSSTLTLSKADYEKHKVYACEVTHQGLSSPVTKSFNRGEC
notes: DVD-Ig; N-term; AB071 (VEGF), C-term; AB072 (DLL4); HC linker long, LC linker long; also called DVD-Ig DVD498; DVD498H/DVD498L
B6: the EC50 in [4] is 30.6 nM.

B7: DVD047 (bispecific antibody, human IgG1, kappa)
heavy: not shown
light: DIQMTQSPSSLSASVGDRVTITCSASQDISNYLNWYQQKPGKAPKVLIYFTSSLHSGVPSRFSGSGSGTDFTLTISSLQPEDFATYYCQQYSTVPWTFGQGTKVEIKRTVAAPDVVMTQSPLSLPVTPGEPASISCRSSQSLLHSNGFNYVDWYLQKPGQSPHLLIYFGSYRASGVPDRFSGSGSGTDFTLKISRVEAEDVGVYYCMQALQTPPWTFGQGTKVEIRRTVAAPSVFIFPPSDEQLKSGTASVVCLLNNFYPREAKVQWKVDNALQSGNSQESVTEQDSKDSTYSLSSTLTLSKADYEKHKVYACEVTHQGLSSPVTKSFNRGEC
notes: DVD-Ig; also called VEGF and RON DVD-Ig
For the molecule B7, the “FACS Geometric Mean C-terminal” value with RON was 0.51.

B8: DVD043 (VEGF (seq. 1) N-terminal / DLL4 (seq. 1) C-terminal DVD-Ig) (bispecific antibody, human IgG1, kappa)
heavy: not shown
light: DIQMTQSPSSLSASVGDRVTITCSASQDISNYLNWYQQKPGKAPKVLIYFTSSLHSGVPSRFSGSGSGTDFTLTISSLQPEDFATYYCQQYSTVPWTFGQGTKVEIKRTVAAPDIQMTQSPSSLSASVGDRVTITCRASQDVSTAVAWYQQKPGKAPKLLIYSASFLYSGVPSRFSGSGSGTDFTLTISSLQPEDFATTYYCQQSYTGTVTFGQGTKVEIKRTVAAPSVFIFPPSDEQLKSGTASVVCLLNNFYPREAKVQWKVDNALQSGNSQESVTEQDSKDSTYSLSSTLTLSKADYEKHKVYACEVTHQGLSSPVTKSFNRGEC
notes: also called DVD043H/DVD043L
For the molecule B8, the half-inhibitory concentration (IC50) in assay [2] was 13.1 nM.

B9: DVD043 (bispecific antibody, human IgG1, kappa)
heavy: not shown
light: DIQMTQSPSSLSASVGDRVTITCSASQDISNYLNWYQQKPGKAPKVLIYFTSSLHSGVPSRFSGSGSGTDFTLTISSLQPEDFATYYCQQYSTVPWTFGQGTKVEIKRTVAAPDIQMTQSPSSLSASVGDRVTITCRASQDVSTAVAWYQQKPGKAPKLLIYSASFLYSGVPSRFSGSGSGTDFTLTISSLQPEDFATTYYCQQSYTGTVTFGQGTKVEIKRTVAAPSVFIFPPSDEQLKSGTASVVCLLNNFYPREAKVQWKVDNALQSGNSQESVTEQDSKDSTYSLSSTLTLSKADYEKHKVYACEVTHQGLSSPVTKSFNRGEC
notes: DVD-Ig; also called VEGF and DLL4 DVD-Ig
With B9, in the assay with DLL4 [3], the “FACS Geometric Mean C-terminal” value stood at 68.4.

B10: AB008 (anti-CD-22 antibody, used as control) (antibody, human IgG1, kappa, V domains shown)
VH: QVQLVQSGAEVKKPGSSVKVSCKASGYTFTSYWLHWVRQAPGQGLEWIGYINPRNDYTEYNQNFKDKATITADESTNTAYMELSSLRSEDTAFYFCARRDITTFYWGQGTTVTVSS
VL: DIQLTQSPSSLSASVGDRVTMSCKSSQSVLYSANHKNYLAWYQQKPGKAPKLLIYWASTRESGVPSRFSGSGSGTDFTFTISSLQPEDIATYYCHQYLSSWTFGGGTKLEIKR
As to B10, in the assay with ErbB3 on A431 cells [5], the “Inhibition Of ErbB3 Phosphorylation (% Inhibition At 60 nM Ab/DVD)” value amounted to 0%. The “Inhibition Of EGFR Phosphorylation (% Inhibition At 60 nM Ab/DVD)” value with EGFR on A431 cells [6] turned out to be 4%. The “Inhibition Of A431 Proliferation (% Inhibition At 21.6 nM Ab/DVD)” value in the assay with ErbB3 on A431 cells [7] and with EGFR on A431 cells [8] was 6% each time.

B11: DVD496 (bispecific antibody, human IgG1, kappa)
heavy: not shown
light: DIQMTQSPSSLSASVGDRVTITCRASQDVSTAVAWYQQKPGKAPKLLIYSASFLYSGVPSRFSGSGSGTDFTLTISSLQPEDFATYYCQQSYTTPPTFGQGTKVEIKRTVAAPSVFIFPPDIQMTQSSSYLSVSLGGRVTITCKASDHINNWLAWYQQKPGNAPRLLISGATSLETGVPSRFSGSGSGKDYTLSITSLQTEDVATYYCQQYWSIPLTFGAGTKLELKRTVAAPSVFIFPPSDEQLKSGTASVVCLLNNFYPREAKVQWKVDNALQSGNSQESVTEQDSKDSTYSLSSTLTLSKADYEKHKVYACEVTHQGLSSPVTKSFNRGEC
notes: DVD-Ig; N-term; AB070 (VEGF), C-term; AB072 (DLL4); HC linker long, LC linker long; also called DVD-Ig DVD496; DVD496H/DVD496L
In [4], B11 yielded an EC50 of 108 nM.

The record behind these values is patent US20100260668A1 (published 2010).
